Source: patent US20240245613A1, “PEPTIDE LIQUID DROPLETS AND METHODS OF USING THE SAME” (RAMOT AT TEL AVIV UNIVERSITY LTD., priority 2021, published 2024)
Entries after “also recorded” stand apart in the source; their conditions may differ.

How the values were obtained:
Format in all cases: physicochemical
[1] = Phase diagrams / liquid-liquid phase separation (turbidity at 500 nm, optical and confocal microscopy); settings: 0.2 M NaCl; for liquid-liquid phase separation (LLPS) / droplet formation, in words: as a function of peptide concentration and pH; for peptide concentration at which phase separation is observed: pH increased until turbidity appeared
Protocol: 150 μl of 5, 10, 20 and 30 mM peptide solutions were prepared in 20 mM of the suitable buffer (citrate buffer for a pH range of 3-6, tris buffer for pH range of 7-9 and ammonium bicarbonate to a pH range of 9-12) with 0.2 M NaCl. The pH was increased gradually until a turbidity appeared and measured as described below. The turbidity of 35 μl was measured in triplicates at λ=500 nm. This process repeated at higher pH, the pH increased until the turbidity faded, and a sediment appeared. All experiments were performed in triplicates and the presented value is the average.
150 μl of 20 μM peptide solutions were prepared in 20 mM Tris buffer. The pH was adjusted to the desired value of 6, 7, 8, 9, 10 and 11. The turbidity of 35 μl was measured in triplicates at λ=500 nm.
All samples were imaged in a 96 Well Black Glass bottom plate, glass 1.5H (made by Hangzhou Xinyou, and purchased from Danyel Biotech) 10 minutes after preparation. The images were taken by Zeiss Zen 900 confocal microscope with ×20/0.8 NA Plan-Apochromat air objective. The light microscopy images were taken at PMT mode. PMT imaging were taken with 561 nm laser and fluorescence imaging were taken with 488, 561 and 405 nm lasers for fluorescein, rhodamine B and GFP, respectively.
A phase diagram was created by increasing the pH at various peptide concentrations until a visible turbidity occurred. The turbidity was measured as the absorbance at λ=500 nm. To confirm that the turbidity occurred as a result of coacervation rather than precipitation, we performed an optical microscopy analysis of 20 mM peptide solution at pH 8.

[2] = Fluorescence recovery after photobleaching (FRAP) of peptide droplets; settings: for apparent diffusion coefficient, comparison in words: among the four LLPS-promoting peptides; for Apparent diffusion coefficient D: droplets prepared with 0.5% FITC labeled peptide, calculated from recovery time; for mobility and dynamics of the droplets: unit not given
Protocol: FRAP experiments were performed by a Zeiss Zen 900 confocal microscope with ×20/0.8 NA Plan-Apochromat air objective. A circular area with radius of 2.5 μm was bleached with a 488 nm laser 100% intensity at 10 iterations; subsequent recovery of the bleached area was recorded with a 488 nm laser. Photobleaching correction and recovery time were calculated using OriginLab. The final FRAP recovery curve is the average of recovery curves collected from five separate droplets.
A fluorescence […] after photo bleaching (FRAP) used to evaluate the diffusion of the droplets. The droplets were prepared with 0.5% of FITC labeled peptide and were observed by confocal microscope. The apparent diffusion coefficients were calculated as followed: […]

[3] = Encapsulation efficiency of fluorescent payloads in peptide droplets; settings: 20 mM peptide, 20 mM Tris + 0.2 M NaCl, pH 8
Protocol: 1 mM Stock solutions of the fluorescein and Rhodamine B dye molecules were prepared in 20 mM Tris buffer. A 20 mM peptide coacervated solutions were prepared in 20 mM Tris+0.2 M NaCl at pH 8. A 148.5 μl of peptide solution was mixed with 1.5 μl of dye solution in a 1.5 ml Eppendorf tube and was pipetted. The 15 μl of GFP solution was added to 135 μl of peptide solution and was mixed in a 1.5 ml Eppendorf tube and was pipetted. After 10 minutes the samples were centrifuged at 15,000 rcf for 10 minutes. A volume of 120 μl from the supernatant was collected and vortexed and then the absorbance of 35 μl triplicates was measured in a 384 well black plate by Biotek H1 synergy plate reader (purchased from Lumitron, Israel). For GFP, a 7.5 μl of 20 mM Tris buffer to a 7.5 μl GFP aliquot from the purchased stock solution. The 15 μl of GFP solution was added to 135 μl of peptide solution and was mixed in a 1.5 ml Eppendorf tube and was pipetted. The concentration of GFP at the supernatant was measured via fluorescence. All experiments were performed in triplicate. The concentration of the supernatant solutions determinate by calibration curves. Imaging was made to 30 μl of uncentrifuged samples.
LLPS are widely known for the ability to encapsulate small molecules or proteins. This characteristic is important for drug delivery and to exploits coacervate as microreactors. In order to investigate the encapsulation capacity of the designed peptides two fluorescent dyes were used (fluorescein and rhodamine B) and the protein GFP. The peptides WGR-1, WGR-3, WGR-4 and WGR-5 were chosen for this experiment for their diverse chemical characteristics. The encapsulation efficiency was measured via bulk measurements and images of the droplets with the dyes were taken in a fluorescence confocal microscope.

| Sequence | liquid-liquid phase separation (LLPS) / droplet formation, in words [1] | peptide concentration at which phase separation is observed [1] [mM] | apparent diffusion coefficient, comparison in words ([2]; FRAP) | Apparent diffusion coefficient D ([2]; FRAP) [m^2 sec^−1] | mobility and dynamics of the droplets [2] | encapsulation efficiency of GFP, in words [3] | encapsulation efficiency of fluorescein, in words [3] | apparent diffusion coefficient (D), fold larger than that of WGR-5 ([2]; FRAP, compared with WGR-5) |
| --- | --- | --- | --- | --- | --- | --- | --- | --- |
| WGRGRGRGWY [WGR-4] | exhibit phase separation at more moderate conditions | 5 | lower diffusion coefficient than WGR-1 | 2.36E−14 | 2.36E-14 | highest encapsulation efficiency | no significant difference | – |
| WGRGRGWPGVGY [WGR-5] | perform a phase separation at similar conditions to WGR-4 | 5 | lowest diffusion | 9.27E−15 | – | compromised encapsulation efficiency | – | – |
| WGRGRGRGWPGVGF [WGR-3] | created LLPS at higher pH value comparing to WGR-1 | – | largest apparent diffusion coefficient | 5.52E−14 | – | lowest encapsulation efficiency | lowest encapsulation efficiency | more than 5 fold |
| WGRGRGRGWPGVGY [WGR-1] | – | – | – | 4.518E−14 | 4.52E-14 | – | no significant difference | – |
| WGRGRGRGWPGVG (WGRGRGRGWPGVGF) [WGR-2] | arrested phase separation; also recorded: LLPS was not observed | – | – | – | – | – | – | – |
| WGKGKGKGWPGVGY | showed no visual turbidity; also recorded: LLPS was not observed | – | – | – | – | – | – | – |
